{"source": "the DeepSol protein solubility set", "data": [{"assay": "soluble on expression in E. coli; label from the status in PepcDB or PDB records", "values": [{"sequence": "MSLNDTALTITAVRAVLLSHRYQPGEELTWVGGTIWSWDAALVEVTLSDGTTGIGEAGAGIMAAAAVPGIVDAFRPYVLDHEFGHPLEVADHLRAYTAFWARGGMLNGVAGAIETAAVDAVAKRLGVPAYEVLGGLKRDWIESYASGGLGTTFGEVSDWAAAQIEAGFGTVKFRAMTDPDTTIKLLDHVTALLPEGIQFVIDAVQACASDPWPVDEAIRVGQKAAELGARWYEEPCQADDVAGYAAVRAAVNVPISGVESNGTVRDFAQLLDAKALDVAQPDVTFVGGPKAFAQVAELAHATGVKTVPHVWGSGVTFAANLHTVLANPYVELFEYCTLPNPLRDAMRVEEVDFRDGGIVAPTAPGLGIQLTPEIEAQFPFSPGGGHVIREGHHHHHH", "soluble on expression in E. coli": "soluble"}, {"sequence": "MSLNKKIEELNKLDKKVVLAPMAGITDGDFCRKFKDLFAIVTIGGYNLDSATYKASRDIEKRGRKEFSINLEEFNSYIIEQIKKARESNALVSVNVRFVDIDEAYDKLLTIAKHADIIELNCHCRQPEITSLGIGQELMKNKNLLKEFLTKMKELNKPIFLKIRLNCIPLKELIDNLNYVRDYFDGLHVDCFYPGKPYADMDSLKILAEEFNDKIIIGNNSIDSIEKAKEMLKYSDFVSVARTILKGNVEWIKELNKENIEGHHHHHH", "soluble on expression in E. coli": "soluble"}, {"sequence": "MSLNLKKAELHVHLEGTISPELAKKLAKRNQLTLPNGLIAPDEKSYLSRDFLDFLKVYDTLASVIKNPQDYYDITFDYLKSNAQEHAIYIEMMYSPDHAEQSSGIPSKEHLAAIQQAIDDAKSQFDIVGRIIITAVRHFGVEACERVAKQASIDKFPCVTGFGLGGDEAKFPPQLFTKAYQIAADSGLECTVHAGEFDSAKGMEEAMKTLPIKRIGHGVRVIDSPDIMAMVKDQGIALEVCPTSNIFLGLFKDMNSHPFPKLYEAGIKVSINSDDPPFMSTTLAQEYKRVQKAYGYNNDTMNNITRMAIEAAFVDEKTRKELLTKLEQEGHHHHHH", "soluble on expression in E. coli": "soluble"}, {"sequence": "MSLNNIQIRNYQPGDFQQLCAIFIRAVTMTASQHYSPQQISAWAQIDESRWKEKLAKSQVWVAIINAQPVGFISRIEHYIDMLFVDPEYTRRGVASALLKPLIKSESELTVDASITAKPFFERYGFQTVKQQRVECRGAWFTNFYMRYKPQHEGGSHHHHHH", "soluble on expression in E. coli": "soluble"}, {"sequence": "MSLNPKQVSQKLANKPKDRPIAFVSKPDSLTQCLTPVFTNSEGYVSVSDCEEAIDARYDVFSRIAWKLRDGWVCLSAENEKYNQGKRLILRPCVIDDKTQSFTIKDNMLYTPDLRFVVRIANGFLTLQKSQSKGAQSNLILHNMQEWLDTIATPAPLMQKGFIAWKFISPQGFDVYYLRNNESIKNDPQELYFNLENGIIAQYDSASAKMFCLTSKQNAKQDWNWASWEECLQQNLRENKAAPSKLNAQNWKLFMFADNDSAMLKDYLGNFLRVTKYGSNWGVPYTAKADYLAKDTNEGQTSYFQFRHDMQDWERFKNANLSDSLPTCPANGSYAKNLKASVKLPPSFVLTQEWKKRLWQIATTTDGVLERAGDCGVCLLHSYQMIAEMNEYTATPLESGGFFFDTAFGRNPFTSFRARYPMLAASLEQYRASNTPPGLSRSAVFAYAAQMYRAIALSLFPGHFWLSSEFATSDVTIRSALRDLFQQPAGTLWVVQMYYVARDGSFNGHGMPVLRTGDGIQFIPTNLTNMNYEGYERALSNSFAHNLREAYNVVTRNGTLNLYMLYSLRLREIYPNPINAFVSNNNCSGEGEDRRGTRNMPLSRFINQCASGRCVLQEGHHHHHH", "soluble on expression in E. coli": "not soluble"}, {"sequence": "MSLNPNVQECSFEETIEAHLFANGYASLPASDYDAALALFPTSVLTFVRATQLKEWAKLEALHGANTEATVLKDLTHWLDTHGTLAVLRNGFKCYGRTLRVAYFKPAHGMNPELAAQYAANRVGVIRQLRYSQRNTNELDLVLSINGIPVFTAELKNPMTGQTVTNAIAQYQHDRDHREPLFEFKRRALVHFAVDTEQVFMTTRLAGSATHFLPFNKGLDGGAGNPPDPAGRAYRTAYLWEEVWQRDSLLDIFARFIHLQVEEKRTDDGRKIKKETMIFPRYHQLRAVRELEDAARTEGPGHNYLVEHSAGSGKSNTIGWLAHRLASLHNESDHKVFDSVIVITDRRVLDRQLQDTIYQFEHRQGVVQKIDEDSRQLAEALTNSVPIIISTLQKFPFVARQLARMAEERREGADGILPTRRCAVIIDEAHSSQSGETATDLKEVLGGHVLREEAARYAVDEGVDNLDELYRSMAKRGRQTNLSFFAFTATPKHKTLAVFGRDEAGKAGQPFHRYTMSQAIEEGFIMDVLKNYTTYATYYKLVKASEDDPNVERKQAAKALARFMRLHPYNIAQKTEVMVEHFNAVTRHKVGGKAKAMVVTGSRLEAVRYKLAFDAYIREKGYSWIKTLVAFSGEVVDDELPGKTWTEVGMNGGIKEGVLPEKFDSSEYQVLLVAEKYQTGYDQPLLHTMYVDKRLAGIQAVQTLSRLNRMHPLKEDTFVLDFVNDRQEIKEAFKQYHEGAEMGEEADPNQMYAIKAELDASGIYLLEEMQRFIGIYFKPKQRQSPADHQAMNEGHHHHHH", "soluble on expression in E. coli": "not soluble"}, {"sequence": "MSLNQTILNRVKTRVMHQLVSSLIYENIVVYKASYQDGVGHFTIEGHDSEYRFTAEKTHSFDRIRITSPIERVVGDEADTTTDYTQLLREVVFTFPKNDEKLEQFIVELLQTELKDTQSMQYRESNPPATPETFNDYEFYAMEGHQYHPSYKSRLGFTLSDNLKFGPDFVPNVKLQWLAIDKDKVETTVSRNVVVNEMLRQQVGDKTYEHFVQQIEASGKHVNDVEMIPVHPWQFEHVIQVDLAEERLNGTVLWLGESDELYHPQQSIRTMSPIDTTKYYLKVPISITNTSTKRVLAPHTIENAAQITDWLKQIQQQDMYLKDELKTVFLGEVLGQSYLNTQLSPYKQTQVYGALGVIWRENIYHMLIDEEDAIPFNALYASDKDGVPFIENWIKQYGSEAWTKQFLAVAIRPMIHMLYYHGIAFESHAQNMMLIHENGWPTRIALKDFHDGVRFKREHLSEAASHLTLKPMPEAHKKVNSNSFIETDDERLVRDFLHDAFFFINIAEIILFIEKQYGIDEELQWQWVKGIIEAYQEAFPELNNYQHFDLFEPTIQVEKLTTRRLLSDSELRIHHVTNPLGVGGINDATTISETEGHHHHHH", "soluble on expression in E. coli": "soluble"}, {"sequence": "MSLNRVSHPLTYENFKTSSAEQESKITKLLENLYKGGKRIVKLRNDPTGVTHAIRLDNDIFKLNVYIKNIDTSKSNLRYTEGYLQSLTNILTRAKEIAIQGASGTYESDDKKMISKEVNALLEDVVAIANAKGPDGYSIFSGTKIDSEAFKVTRENKISKTSKDGAGPQIIKVEYNGNQAEKKTEVYNDIHMSNNYPGNVIFFLQNQNIISSINTNGFAVKENTKIYIDNIEIGLTAGDTALDIVAKINESSAPVEASIDPVLNSLSIKTTTPHQIWITEEKESNVLQTLGILTKNNDTKLPPYNLSSSTEVRSRSIFDALIELRDTLYNNKEELVGSRSLAEIDESLKRLLISVADLGAKENRLDRSYERISKEAADMKEDMIQYTDEGHHHHHH", "soluble on expression in E. coli": "soluble"}, {"sequence": "MSLNTVYHSYQSLPNEGWGKSDTLSFQCPVTDSIPGTLRLFAEVRNRSEYPYRNLYLFIHENLLDSTVWRTDTIAVNLADSTGRWTGNGWGSIYQTAVFVKSVRPLHPGNYTVKIVHGMQDEKLTGLNDVGIRIEKQGEGHHHHHH", "soluble on expression in E. coli": "soluble"}, {"sequence": "MSLNWEHLLSLKRQGDTAKRLRIEQDDTRLGFEVDYDRIIFSAPFRSLQDKTQVIPLSKTDFVHTRLTHSLEVSVVGRSLGRMVGKKLLEKYPHLEQVYGYKFNDFGAIVAAAALAHDIGNPPFGHSGEKAIGEFFKNGYGKRYKDSLTAKEYQDLIKFEGNANGFKVLSQSKPGAQGGLRLSYATLGAFMKYPKESLPHKPSDHIADKKYGFFQSERALFEDVAQELGLLKRSTTDDVSWSRHPLAYLVEAADDICYTIIDFEDGINLGLIPEEYALEYMVKLVGQTIDRNKYNALQETSDRVSYLRALAIGTLINESVDTFMKYEEEILAGTFDQSLIDKSNYQAQITDIINLSIERIYNSREVIEKEIAGYEILSTLLEARCRALDNNDTHYNQLIQQLLAPNDHSEKSLYENLIQICAEVSTMTDGKALRNYKKIKGLDEGHHHHHH", "soluble on expression in E. coli": "soluble"}, {"sequence": "MSLPHALIVEDDPNSLSGLSAILAADGFSVDTATTIAEARAALTRFIPDVVLVDLNLPDGSGLDLLQHLPAHPPGGALPVIVMTGNATVESAIEGLRHGIWDYLLKPVNIPRLRSLLARIPRPYELTEEVQTLRASLRQLGRFGSMLGRSGAIQHVYDTIEHIAPTEAAVLISGETGTGKQIAARTMHDMSRRRKGPFITFDCRSANSAGVQRSLDSLLFGHERGAFNGAEQREPGLFEQASGGTLFIEEIAELPRAQQEALLRALDSQTFMRVGGTNQVVTDFRLIASTRKAPRAAVADGSLHEDLALRLEAAAVTLPPLRERGEDPALIAQAVVDELNHEGLTRGSAESAKQVAPNFLRECLAYEWPGNVRELQDRVRRAYHASGDVLESLRADEAGSEGHHHHHH", "soluble on expression in E. coli": "soluble"}, {"sequence": "MSLPILTIREVCNINHWGIGYYDVDDSGEIIVRPNPSQHNQTVSLQKLTEAVQQKHQARLPVLFCFPQILEHRLRDINRAFQTAREECGYKGGYCLVYPIKVNQHRRVIESLMSSGQPHGLEAGSKAELMAVLAHAGNRQTLIVCNGYKDREYIRFALMGEKLGHQVYLVIEKLSEIQMVLEEAEKLGIKPRLGVRARLASQGSGKWQSSGGEKSKFGLSASQVLQLVDILKQKNRLDCLQLLHFHLGSQLGNIRDVATGVHESARFYVELHKLGVNIRCFDVGGGLGVDYEGNRTQSDCSVNYSLNEYAATVVWGISQACLEHGLPHPTIITESGRGITAHHAVLVANVIGVERYKPRRLDAPSPEAPRVLHSMWETWTDISASREKRSLRSWIHEGQFDLADVHNQYNVGLLSLAQRAWAEQLYLNICHEVGELFNEKHRSHRTIIDELQERFADKLYVNFSLFQSLPDAWGIDQLFPVCPITGLNEPIARRAVLLDITCDSDGTIDHYIDGDGIAGTMPMPDYPEEEPPLLGFFMVGAYQEILGNMHNLFGDTATADVVVGEDGQFTVIDYDEGNTVADMLEYVYQDPKELMKRYREQIEHSDLPASQAMSFLKELEAGLNGYTYLEDEEGHHHHHH", "soluble on expression in E. coli": "soluble"}, {"sequence": "MSLPIRVPDELPAVNFLREENVFVMTTSRASGQEIRPLKVLILNLMPKKIETENQFLRLLSNSPLQVDIQLLRIDSRESRNTPAEHLNNFYCNFEDIQEQNFDGLIVTGAPLGLVEFNDVAYWPQIKQVLEWSKDHVTSTLFVCWAVQAALNILYGIPKQTRTDKLSGVYEHHILHPHALLTRGFDDSFLAPHSRYADFPAALIRDYTDLEILAETEEGDAYLFASKDKRIAFVTGHPEYDAQTLAQEYFRDVEAGLDPEVPYNYFPHNDPQNKPRASWRSHGNLLFTNWLNYYVYQITPYDLRHMNPTLDEGHHHHHH", "soluble on expression in E. coli": "soluble"}, {"sequence": "MSLPKITKIEVQKKNKERFNLFLDEQFEMGIDIDTLVKFNLKKGQQLEAADMAEIQKYDHYRIGLNKAIQYLSYKKRTEKEVIQYLQKEEISEQAISEVIEYCYREKLIDHQDYAESLKNTMIRTTDKGPKIYQQKLYQLGIEPNIIEIFTELYREQQELDDIIQIAEKISKTKKGPQNKVKEKVMQSLIQKGFEMETIHAVLNEMDFTQDEAVLDDLLQRDLEKIYNKNRKKYTQQKLISKTIEGLMRKGYKYDKIKAKLEESGIADGTEEIEEGHHHHHH", "soluble on expression in E. coli": "soluble"}, {"sequence": "MSLPLSKTLVQKLQQAGMAIANNQPQIKFTPLSISDEKGKVALDLNIALVPNPKFDLMHSGLYKQFKDFSINFDVNKETAISLLSKFVPENQKQDLVYRMDELIAEGEANGIIVNTDKTVTLTLALENNDLKLNGKPIPEEQLKVVLFILVMGGFGREGHHHHHH", "soluble on expression in E. coli": "soluble"}, {"sequence": "MSLPPILTSQIGPDSIELRLLVAADLEYFNGHFPEQAVLPGVTQLDWAVRLGCEHFGYSAAVANLEVLKFQQLILPGQEVTLVISHNATKEKLTFAYSDGDHRYASGRISFASKQDDGLEHHHHHH", "soluble on expression in E. coli": "not soluble"}, {"sequence": "MSLPRFSNVSYEQYWALREQSDEWLEYIDGAVYMAPSPSIKHQLVSSNLHTELGLYFRGKPCNVFAAPTDIELASDKFPDRKVVIPDLSVICDSKGFTETKYVGVPTLIVEILSPSNQAHDLVTKFNLYMAYGVKEYWIVNPMKEAITVYTLNEEGLYEQADVKAGTGVVQSACFPRLEVALEDVFR", "soluble on expression in E. coli": "not soluble"}]}]}
